Protein production data for 10 sequences are collected here from a protein production outcome set (Wang et al. 2014).

The data set can be described thus: label from the status in PepcDB records.
Consider “MEAIFWLALALVAFTYAGYPLVLAVWDGAREALAAVRFVSGGDDRRGRATEGWPTVTLLFSAFDEEAWIRRKIENCLALDYPPDRLEILVGCDGCTDRTAEIAREVGGSRVKVHALSPRAGKASVLSRLVPQARGDLVVLTDANVMLERGALRALARRFREPGVGAVVGRLRLFNPTRREFEESLYWKYETAIKYYEGKHGCVLGANGGIYAIRRILFSPLPPDTIVDDFVIPVRIAARGWEVPFEPEAVAFEETTEDAGHEFGRRARIGAGNWQALARVPELLDPRTGFLCFAFVSHKLLRWSAPFLLAAAAVANGLLAAAPGAWGYRALLLAQAAFYGLALAGRHGAVGLRGPVRRLASLAHYFVAMNAALAVGLWRFLRRSQRAAWQRTERAGPSVPAA”, for which the protein production entry is “failed”.
Turning to “MPGVLVTGGTGKTGKVLVQVLRNAGVQARVASRNPAAADPDPIRFDWNDPTTYGPALDGMDRVFLLPPVESVDPLPLVEPFLRRAQRAGVQRLVMLGSAIVLPNAPSAVEMAAQVQAQPGGVVLRASGFMQNFLRPHPLAEHIHRLGEIRTAAGDGRLGWVDARDIAASAAALLADLEVDARSDYLITGPHGMSYPQAAQIITAQTGRRVRVERITEEEQAAAHRASGMPPAFADALAAVERGIKEGREDQVSTAVLELTGRPPRTFAEFVSDHAYEWTQ”, the protein production entry is on record as “failed”.
“MSLILLGALSLASSTFAQTWIWYPGDYEIWLGNQMNNRRTERGAFFPPFWKTDSHYVVVEFSKVLNLSEPEEVFIAAEGTYNVKLDGKLQFGMPETLLLPAGKHSLNIKVWNQATPPTIYVKGKTVNSDSSWRVTYEDKEWIDESGKASDTSATIYMDAGCWNFDGATQRPSQFSLMREPQQPVAKTEQPEGGILYDFGKETFGFITLKNLSGKGKIDLYYGESPEEAKDKAYCETLDKLLLEPGQITDLAIRSTSPLHHSDNEYTLENSKAFRYVYITHEPEVQIGEVSMQYEYLPEEYRGNFRCNDEELNCIWEVGAYTMHLTTREFFIDGIKRDRWVWSGDAIQSYLMNYYLFFDSESVKRTIWLLRGKDPVTSHSNTIMDYTFYWFLSVYDYYMYSGDRHFVNQLYPRMQTMMDYVLGRTNKNGMVEGMSGDWVFVDWADGYLDKKGELSFEQVLFCRSLETMALCADLVGDKDGQQKYEKLASALKAKLEPTFWNNQKQAFVHNCVDGRQSDAVTRYANMFSVFFDYLNADKQQAIKQSVLLNDEILKITTPYMRFYELEALCALGEQETVMKEMKAYWGGMLKAGATSFWEKYNPEESGTQHLAMYGRPYGKSLCHAWGASPIYLLGKYYLGVKPTKEGYKEFAVSPVLGGLKWMEGTVPTPNGDIHVYMDNKTIKVKATEGKGYLTIQSRRQPKANMGTVEKVSEGVWRLWIDSPEERIVTYRLEGHHHHHH”: the protein production entry is “not failed”.
As for “MSLLSLLIALAADRSLSAKVWQFNFYYQHYHHFFSKNFTAKQGTTASAVFIILPVIATYLLLDVIDNSVLQLLFSTVILIVCFGCTTTRKSYKSYLHSAFRGEETTTEMHHEQLLSDKNLPEMGFGQALIWLNYRYYIAIMLFFTVFGAAGAVFYRLLTTVIEHKKAKCMASAAENKAQAEVSSVDESDIESEEHHQAVHEGNVAPNIMNGCQNHHDVLFWLDWLPVRIASFGYMFVGHFSKAMPVWLESLFDSQKPTHQVLIDVAEKSEDLLVNENDCTAEPCLLVRLAKRNVLLVLAVISILTLSGLLN”, the protein production entry is given as “failed”.
As for “MTWLLFGAGNGVGGCLLQRAIECEQAVVLVLRNPEQAKHWREQGVTVVEGDACDPETVAEACRVAGPSAIVVSTMGGGTVNYQGHRTVIDGAEQAGIKRMLLVTSLGCGDSWPLLSPRARAAFGFAVREKSLAESWLQSSTLDHCIVRPGGLLDVVATHNAKLTQGAATLGLVSRSDVALAVDQLLQQPVFGNHIYNLIDPDLTMPAIPLEHHHHHH”, the protein production entry is “failed”.
The value for “MLHYQIEFDDYRQHLVHVTLRFLADPNQELWLPTWIPGSYLIREFSKHIESVQAYDEAGRILEIKKQQKNRWRLFNTDHELITVEYDAYAYDLSVRGAYVDQTRLYINPACVCLALGGQEEKACEVELFLPQELKHFQLATGLPSKSLVKGRFTLKAENYDQLIDSPFELAEQTRFSFEAGNIAHEMVISGIHATNTERLKNDLEKICATEVALFGSAPFQNYTFMTMATGNSYGGLEHCNSTSLIIPRTDLPKLNEPEEPSEDYQRFLGLCSHEYFHSWLVKFIRPENFARYNLNQESYTSLLWIFEGFTSYYDDLILLRSGVISQESYLKLLKAQIDRYLQNPGRQIQSVAESSFDAWIKFYRQDENSNNAGTSYYNKGCLVALCLDLGLRLRGSSLDALLRLLYQNTEKGVQVNERTIFELCQQLTGDSWIEQINHLINTTDELPLDQLFPEFGLSYALKHDKKMPFGMKLQDKPEGVMVQQVNRYGAAATAGLSAQDVIIAIDGLKASEKLLATYAKQQGIITILAFRRDELMSFEVERSTIDLAEVELVVQDQSKADHWLKV” was “failed”; that for “MKHLPTTLLLSTLAITLSAQAHNLVPAPKQTQSVLIKNATVHTVIQGVLTNTDVLIENGKISALGPQLSTNTTASTQVVDASGKHLYPGLIALDTSLGLVEIEMVRPTVDNAEVGDVNPQISAASAYNPDSELLPTIRYNGITHAQIVPSGDGLAGQSVVVDLDAWTIEDALQPNEGQFHVYWPQIKRMPEDEKEKAKAIEKNQQAIDKLITAFEDGYRYFLSQNAQDTDNWPNLRWQAMLPLYQGKATLFAHADSVSQIEQVIALTKKYQFKLVIVGGYDAWRLASSLREVNASVIYPHTLSLPKRKDEPVDLPFKIPSLLANAGIPYALGFSSDWNSRNLPYAAGYSAAYGVTPEQALKSVTLDAAKLLGIADLGAIAVGYQGSVVLSDGDILDPMSSKIDAIWIEGRQIDLNNRHQQLYQKYLKR” was “failed”; that for “MTKAMTAHDYLPLIEKIRKRISSWTGRFLSYCGRLQLIKSVLMSITNFWSSAFRLPGNCMKEIERLCSAFLWSGPDLKTHNAKIAWSKVCLPMCEGGLGLRPLKEINTVCGLKLIWRLLASQTSLWGQWVQTYLIRRNNFWAIKASSYQGSWMWRKLLTLRDVARSFHKKEIHNGRNTSFWYDHWSSMGTLVDVLGARGCIDLGITTTTNMENVFTTRRSRKHRGDLLVRIEAEIEAAKTRHQPDIEDIDLWKPSTGYKKTFSTRETWKLIRMAEPVCEWAKGVWFPKPHQNLLSLLGWVCTIVFQQGTECKSGTAKLTLLAFSAKTLWKQEITYSSTVTTPIKFGKL” was “failed”.
Take “MDRVMRDDLHIMPPPAPLAMQAQDFSAGFRDALAPPDSPQRDVAPWRVLAFSPAMAATLALVWLMGDWFSDSGISVLEAVLLALISFNFFWIAFAASTVLLGMLSLSRQPARARAGRAEPLKVALLMPVYNEVPWYVLGNARTMLEELKARGGQHQYAMFILSDTRDDAIAAQEQASVEALRTTLAPDLALYYRRRVENTDRKVGNIADWVAGWGGAWDAMLVLDADSLMTGRAIARLTDALARDPGAGLIQSFPQLIGAQSVFARMQQFANGVYGAAFAEGMARWCGQEGNYWGHNAIIRTAAFANCAGLPKLRSLSGREKLIMSHDFVEAGLLRRAGWSVRFLPRIRGSYEETPPTLIDHVLRDRRWCQGNLQHLNLLNARGFRSVSRFHMFHGAIGYLMSPIWFALLVMWALIGHGQDGSVLQYFSPDNPLFPQWPEMTEGRHVLIIVVMYAMLLLPKLLGVLALPLSGAHYSDFGGAGRFLLSFLSEVVLSILYAPILMVQQMIAVFRTFLGIQKGWSPQARDGGTYGLGTLVKCHMLETLSGLALGTGIALGLVSVWLAPIALSLALAVPLSALSGVSAGTARRLIGMREEFREPAITRSARAYRNELKTLLERGSRIHPAE”: the protein production result is “failed”.
The value for “MKKEAESLIEKEHGTNPKISRYWIQRYDLFSKYDQGIEMDEEGWYSVTPEEIAIKQAERCRGKVVIDCFSGVGAIDIDPMKIALAMNNAKVYGVANRIDFVTGDFMQLAPSLKGDVLFLSPPWGGPTYSKVESYKLDMLLPRDGGVERVDSLTHESHNMTRSMKLKKRSRLKKEVKSTIEKDNGRRHKITKYWIQRYDLFSRYDQGIEMDEEGWYSVTPEEIAIKQAQRYRGKVVIDCFSGVGGNTIQFAKVCSSVVAIDIDPVKVELAMNNAMVYGVANRVDFVIGDFIQLAPSLKGDVVFLSPPWGGPMYRDFESYNLDMLQPRDGYSLFQIAQSITPNIIMFLPRNVDLAQVEELAWLSSPPLNLEIEENFVGGRMKAVTAYFSCNAV” was “not failed”.
